Experimental data from publication PMC5889392, “Cryptic glucocorticoid receptor-binding sites pervade genomic NF-κB response elements”.

Key:
[1] = molecular target: T1, full-length GR (Homo sapiens, UniProt P04150 1-777); assay: fluorescence polarization; conditions: triamcinolone acetonide; Fig. 2d legend gives 35 nM; FP: 10 nM 6-FAM dsDNA, 100 mM NaCl, 20 mM Tris-HCl pH 7.4, 5% glycerol, temperature not stated; NMR: 20 mM phosphate pH 6.7, 100 mM NaCl, 1 mM TCEP, 10% D2O …
[2] = molecular target: T2, GR DBD (Homo sapiens, UniProt P04150 417-506); assay: fluorescence polarization; two-site binding curve; Kd in Supplementary Table 5; FP: 10 nM 6-FAM dsDNA, 100 mM NaCl, 20 mM Tris-HCl pH 7.4, 5% glycerol, temperature not stated; NMR: 20 mM phosphate pH 6.7, 100 mM NaCl, 1 mM TCEP, 10% D2O, 10 and 25 C (NOESY), 25 C (HSQC); conditions: protein: recombinant, tags: N-terminal 6xHis with TEV site, blunt
T2 sequence (P04150 417-506): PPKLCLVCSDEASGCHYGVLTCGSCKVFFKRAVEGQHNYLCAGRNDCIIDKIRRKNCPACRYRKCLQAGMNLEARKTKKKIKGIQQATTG

[3] = molecular target: T2, GR DBD; assay: X-ray crystallography; 2.40 A refinement; FP: 10 nM 6-FAM dsDNA, 100 mM NaCl, 20 mM Tris-HCl pH 7.4, 5% glycerol, temperature not stated; NMR: 20 mM phosphate pH 6.7, 100 mM NaCl, 1 mM TCEP, 10% D2O, 10 and 25 C (NOESY), 25 C (HSQC); conditions: protein: recombinant; tags: N-terminal 6xHis with TEV site
[4] = molecular target: T1, full-length GR; assay: fluorescence polarization; triamcinolone acetonide; FP: 10 nM 6-FAM dsDNA, 100 mM NaCl, 20 mM Tris-HCl pH 7.4, 5% glycerol, temperature not stated; NMR: 20 mM phosphate pH 6.7, 100 mM NaCl, 1 mM TCEP, 10% D2O, 10 and 25 C (NOESY), 25 C (HSQC); conditions: protein: recombinant; tags: N-terminal 6xHis; chain copies: 2; label: 5'-FAM on strand 1; blunt
[5] = molecular target: T2, GR DBD; assay: X-ray crystallography; 2.25 A; FP: 10 nM 6-FAM dsDNA, 100 mM NaCl, 20 mM Tris-HCl pH 7.4, 5% glycerol, temperature not stated; NMR: 20 mM phosphate pH 6.7, 100 mM NaCl, 1 mM TCEP, 10% D2O, 10 and 25 C (NOESY), 25 C (HSQC); conditions: protein: recombinant; tags: N-terminal 6xHis with TEV site
[6] = molecular target: T2, GR DBD; assay: X-ray crystallography; 2.20 A; FP: 10 nM 6-FAM dsDNA, 100 mM NaCl, 20 mM Tris-HCl pH 7.4, 5% glycerol, temperature not stated; NMR: 20 mM phosphate pH 6.7, 100 mM NaCl, 1 mM TCEP, 10% D2O, 10 and 25 C (NOESY), 25 C (HSQC); conditions: protein: recombinant; tags: N-terminal 6xHis with TEV site
[7] = molecular target: T2, GR DBD; assay: X-ray crystallography; 1.85 A; FP: 10 nM 6-FAM dsDNA, 100 mM NaCl, 20 mM Tris-HCl pH 7.4, 5% glycerol, temperature not stated; NMR: 20 mM phosphate pH 6.7, 100 mM NaCl, 1 mM TCEP, 10% D2O, 10 and 25 C (NOESY), 25 C (HSQC); conditions: protein: recombinant; tags: N-terminal 6xHis with TEV site

T1 sequence (P04150 whole entry): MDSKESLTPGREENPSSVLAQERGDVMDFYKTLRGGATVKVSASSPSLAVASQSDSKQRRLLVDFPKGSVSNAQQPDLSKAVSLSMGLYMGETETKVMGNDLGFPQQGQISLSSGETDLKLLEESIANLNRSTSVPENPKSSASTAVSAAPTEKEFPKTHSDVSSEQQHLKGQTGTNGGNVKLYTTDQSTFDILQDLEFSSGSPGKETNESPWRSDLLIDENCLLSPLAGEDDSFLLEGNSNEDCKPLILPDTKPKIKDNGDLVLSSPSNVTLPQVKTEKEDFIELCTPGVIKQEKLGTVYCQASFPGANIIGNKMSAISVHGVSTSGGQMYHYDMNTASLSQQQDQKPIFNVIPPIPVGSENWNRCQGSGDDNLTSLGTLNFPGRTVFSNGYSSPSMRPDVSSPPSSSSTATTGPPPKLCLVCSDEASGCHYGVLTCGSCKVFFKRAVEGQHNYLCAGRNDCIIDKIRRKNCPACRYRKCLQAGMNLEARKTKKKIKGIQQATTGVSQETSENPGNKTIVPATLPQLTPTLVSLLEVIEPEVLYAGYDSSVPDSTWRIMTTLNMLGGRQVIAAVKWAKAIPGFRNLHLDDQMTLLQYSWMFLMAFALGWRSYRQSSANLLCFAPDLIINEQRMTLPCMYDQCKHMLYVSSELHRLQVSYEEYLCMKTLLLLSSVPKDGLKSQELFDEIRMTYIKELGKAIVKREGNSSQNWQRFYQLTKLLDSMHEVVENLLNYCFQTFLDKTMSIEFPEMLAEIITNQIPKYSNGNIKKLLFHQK

For SGK1 (+)GRE, the Kd [1] was 34 nM.

B1: PLAU kBRE (dsDNA)
DNA 1: CCCTGGGAATTTCCTGATA
DNA 2: TATCAGGAAATTCCCAGGG
B1: binds ([2]; label: 5'-FAM on strand 1).

B2: ICAM1 kBRE 16 bp crystal DNA (dsDNA)
DNA 1: TTGGAAATTCCGGAGC
DNA 2: GCTCCGGAATTTCCAA
B2: binds [3].

B3: CCL2 kBRE (dsDNA)
DNA 1: GAGTGGGAATTTCCACTCA
DNA 2: TGAGTGGAAATTCCCACTC
B3: binds [2].

B4: IL8 kBRE (dsDNA)
DNA 1: AATCGTGGAATTTCCTCTG
DNA 2: CAGAGGAAATTCCACGATT
In the case of B4, the Kd [4] is reported as 51 nM.

B5: RELB kBRE 16 bp crystal DNA (dsDNA)
DNA 1: CCGGGGAATTCCGCCG
DNA 2: CGGCGGAATTCCCCGG
B5: binds [5].

B6: PLAU kBRE 16 bp crystal DNA (dsDNA)
DNA 1: ATCAGGAAATTTCCAG
DNA 2: CTGGAAATTTCCTGAT
B6: binds [6].

B7: CCL2 kBRE 16 bp crystal DNA (dsDNA)
DNA 1: AGTGGGAATTTCCACT
DNA 2: AGTGGAAATTCCCACT
B7: binds [6].

B8: IL8 kBRE 16 bp crystal DNA (dsDNA)
DNA 1: ATCGTGGAATTTCCTC
DNA 2: GAGGAAATTCCACGAT
B8: binds [7].
